Protein production data for seven sequences are collected here from a protein production outcome set (Wang et al. 2014).

This data set in a line: label from the status in PepcDB records.
Take “MSISWSMSRNMFKLAHISDVHLGPLPRLSIQELFSKRITGFVNWHRNRRKHLFASTLDLLLDDIRTHRADHLAVTGDLVNLASGIEIRAAAAWLRALGDPADTSVVPGNHDAYVPGAYEKSMRAWYDYVRGDLAPPQWQEDRRIFPYLRVRDKVAIVGCSTAVATPPFAASGFFSARQARDTVNMLRAAGEAGLFRVVMIHHPPIRGATAFHKRMIGIRRFAAVISTGGAELVLHGHTHLNTLHWLRGQVQPVPVVGIASASQGPGSIKPPAAYNLFSIDGAPGAWELTGERFSLNRTGDAMMPESVDIFAPLEHHHHHH”: the protein production result is given as “failed”.
As for “DRFPVTPVSREDLAGVLEAVERLRHWRPAAAGAWAVDYRGMLEGVHAQGVFDDGHWADLLRLLELSGAPREFGHGDLVLANVVRSRGRQVLIDWASSALYLPGLDLAQLWMLLGDVPGARARIEVEVADRADDRDGMMPFLVNLTLLLYRERRAHRRF”, the protein production result was “failed”.
For the sequence “MSSAKSARYNRFSGGPANLPASDSSGTRMETTFGPTFSTVTTITKAADGTSTYKQHRRTPSSSSTLAYSPRDEEDGMPPINTPRRSDSAISVRSLHSESSMSLRSTFSLPEEEEEPEPLVFAEQPSVKLCCQLCCSVFKDPVITTCGHTFCRRCALKSEKCPVDNAKLTVVVNNIAVAEQIGELFIHCRHGCRAAGTGKPGVFEVDPRGCPFTIKLSARKDHESSCDYRPVRCPNNPSCPPLLKMNLEAHLKECEHIKCPHSKYGCTFIGNQDTYETHLETCRFEGLKEFLQQTDDRFHEMHVALAQKDQEIAFLRSMLGKLSEKIDQLEKSLELKFDVLDENQSKLSEDLMEFRRDASMLNDELSHINARLNMGILGSYDPQQIFKCKGTFVGHQGPVWCLCVYSMGDLLFSGSSDKTIKVWDTCTTYKCQKTLEGHDGIVLALCIQGCKLYSGSADCTIIVWDIQNLQKVNTIRAHDNPVCTLVSSHNMLFSGSLKAIKVWDIVGTELKLKKELTGLNHWVRALVAAQSYLYSGSYQTIKIWDIRTLDCIHVLQTSGGSVYSIAVTNHHIVCGTYENLIHVWDIESKEQVRTLTGHVGTVYALAVISTPDQTKVFSASYDRSLRVWSMDNMICTQTLLRHQGSVTALAVSRGRLFSGAVDSTVKVWTC”, the protein production entry is recorded as “failed”.
In the case of “MSLDFRSADFLRTHISDTMAFYHPRCIDSAGGFFHYFRDDGSIYNATHRHLVSSTRFVFNYAMAYLQFGTAEYLDAVHHGLSYVRDVHRNPATGGYAWTLCDDRVEDDTNHCYGLAFVMLAYSCGLKVGIKQAREWMDETWCLLERHFWDAEYGLYKDEADAQWNFTRYRGQNANMHMCEAMLAAYEASGEQRYLERALVLADRITRRQAAKADGLVWEHYDMRWEVDWDYNRDNPKHLFRPWGFQPGHQTEWAKLLLILDRYIEVEWLVPVARSLFDVAVARSWDAVRGGLCYGFAPDGTICDDDKYFWVQAESLAAAALLATRSGDERYWQWYDRLWAYAWQHMVDHRYGAWYRLLDGDNRKYNDEKSPAGKTDYHTMGACHEVLNVVWTKSEGHHHHHH”, the protein production entry is “not failed”.
“SEPPKMNPVVEPLSWMLGTWLSDPPGAGTYPTLQPFQYLEEVHISHVGQPMLNFSFNSFHPDTRKPMHRECGFIRLKPDTNKVAFVSAQNTGVVEVEEGEVNGQELCIASHSIARISFAKEPHVEQITRKFRLNSEGKLEQTVSMATTTQPMTQHLHVTYKKVTP”: the protein production entry is given as “not failed”.
The entry for “MNSTAIVLLNWRSAKDTVKCVESLIAAEIRQCDIIIVDNDSQDESINVIKEHFTDVRVIESGKNGGFAYGCNVGIRAALSSGYNYVWLLNNDTIVDKTTLPNMIEEIKRNKKAIVGSIIRDIEFPWSVQAVGGGTINFLTGTGRHIKTFDDVDKLDYLLGASILVSREALESIGLLNEDFFMYWEDTEFCIRARRKGYFLKVAKQSNVYHKEGGSVNKESYAQTRMIFRSMRKFFLKESPFPLLPIAIRQLGKTFVSLLRREFRRIPYIWL” is “failed”.
“VKTWPAPTAPTPVRATVTVPGSKSQTNRALVLAALAAAQGRGASTISGALRSRDTELMLDALQTLGLRVDGVGSELTVSGRIEPGPGARVDCGLAGTVLRFVPPLAALGSVPVTFDGDQQARGRPIAPLLDALRELGVAVDGTGLPFRVRGNGSLAGGTVAIDASASSQFVSGLLLSAASFTDGLTVQHTGSSLPSAPHIAMTAAMLRQAGVDIDDSTPNRWQVRPGPVAARRWDIEPDLTNAVAFLSAAVVSGGTVRITGWPRVSVQPADHILAILRQLNAVVIHADSSLEVRGPTGYDGFDVDLRAVGELTPSVAALAALASPGSVSRLSGIAHLRGHETDRLAALSTEINRLGGTCRETPDGLVITATPLRPGIWRAYADHRMAMAGAIIGLRVAGVEVDDIAATTKTLPEFPRLWAEMVGPGQGWGYPQPRSGQRARRATGQGSGG”: the protein production result was “not failed”.
